Source: US20240409624A1 (UCB, published 2024)
Each block holds one binder with its values, some of them ahead of it.

Experiments:
[1] = molecular target: T1, 0N4 R tau P301 mutated to alanine (human, UniProt P10636 1-758); experiment: flow cytometry on fixed, permeabilised Expi293 cells expressing the mutant, 10 µg/ml VR7082
T1 construct: also called P301A
Experimental: (§1) Upon receipt of the constructs, single constructs were transiently transfected into Expi293 cells (Thermo-Fisher) according to the instructions from the manufacturer. The cells were incubated at 38° C., shaking at 220 RPM, in a humidified 5% CO2 environment. Following a 48 hour incubation, the cells were harvested via centrifugation at 350 G(av) for 10 minutes. The cells were fixed and permeabilized with Invitrogens Fix and Perm kit, according to the instructions from the manufacturers. […] The cells were incubated on ice for 30 minutes before being washed in PBS+1% BSA and resuspended in 50 μl/well.
(§2) The cells were run on an IQue3 and tau containing cells were gated via the alexa-488 fluorescence from HT7 and tau binding assessed via alexa-647 staining. The data was normalised and expressed as a percentage of the binding signal observed for not-mutated tau.

[2] = molecular target: T2, 0N4 R tau G302 mutated to alanine (human, UniProt P10636 1-758); experiment: as above
T2 construct: also called G302A
Experimental: as §1, §2

0N3 R tau [3] = molecular target: T3, 0N3 R tau (human, UniProt P10636-2 1-352); experiment: ELISA, antibody titrated about 3 to 10000 ng/ml on tau isoform coated directly onto the plate, OD 630 nm
T3 construct: Used as recombinant protein (ELISA), overexpressed in cells (flow cytometry, Western blot, immunofluorescence) and native in iPSC derived neurons; also called 3 R tau (iPSC derived neurons express 0N3 R tau)

1N3 R tau [4] = molecular target: T4, 1N3 R tau (human, UniProt P10636-4 1-381); experiment: as above
T4 construct: One of the six recombinantly expressed tau isoforms

2N3 R tau [5] = molecular target: T5, 2N3 R tau (human, UniProt P10636-5 1-410); experiment: as above
T5 construct: One of the six recombinantly expressed tau isoforms

1N4 R tau [6] = molecular target: T6, 1N4 R tau (human, UniProt P10636-7 1-412); experiment: as above
T6 construct: One of the six recombinantly expressed tau isoforms

2N4 R tau [7] = molecular target: T7, 2N4 R tau (human, UniProt P10636 2-758); experiment: as above
T7 construct: also called largest human isoform of tau

0N3 R tau [8] = molecular target: T3, 0N3 R tau; experiment: Western blot of lysates of cells overexpressing a single tau isoform, probed with the mouse IgG format
1N3 R tau [9] = molecular target: T4, 1N3 R tau; experiment: as above
2N3 R tau [10] = molecular target: T5, 2N3 R tau; experiment: as above
1N4 R tau [11] = molecular target: T6, 1N4 R tau; experiment: as above
2N4 R tau [12] = molecular target: T7, 2N4 R tau; experiment: as above
2N4 R tau [13] = molecular target: T7, 2N4 R tau; experiment: ELISA, antibody titrated about 3 to 10000 ng/ml on tau isoform coated directly onto the plate, OD 630 nm; remark: listed apart in the source
0N3 R tau [14] = molecular target: T3, 0N3 R tau; experiment: flow cytometry, antibody titrated about 3 to 10000 ng/ml on cells with intracellularly expressed tau isoform, geomean AF647 of transfected cells
1N3 R tau [15] = molecular target: T4, 1N3 R tau; experiment: as above
2N3 R tau [16] = molecular target: T5, 2N3 R tau; experiment: as above
1N4 R tau [17] = molecular target: T6, 1N4 R tau; experiment: as above
1N4 R tau [18] = molecular target: T6, 1N4 R tau; experiment: Western blot of lysates of cells overexpressing a single tau isoform, probed with the mouse IgG format; remark: listed apart in the source
2N4 R tau [19] = molecular target: T7, 2N4 R tau; experiment: as above; remark: listed apart in the source
0N3 R tau [20] = molecular target: T3, 0N3 R tau; experiment: ELISA, scFv-Ms-Fc titrated about 3 to 10000 ng/ml on coated tau isoform, OD 630 nm
1N3 R tau [21] = molecular target: T4, 1N3 R tau; experiment: as above
2N3 R tau [22] = molecular target: T5, 2N3 R tau; experiment: as above
0N4 R tau = molecular target: T8, 0N4 R tau (human, UniProt P10636-6 1-383); experiment: flow cytometry, scFv-Ms-Fc titrated about 3 to 10000 ng/ml on cells transfected with the tau isoform, mean fluorescence of transfected cells
T8 construct: Used as recombinant protein (ELISA), overexpressed in cells and native in 10+16 MAPT mutant iPSC derived neurons; also called unmutated 0N4 R tau; 4 R tau (10+16 MAPT mutant neurons express 0N4 R tau)

1N4 R tau [23] = molecular target: T6, 1N4 R tau; experiment: as above
2N4 R tau [24] = molecular target: T7, 2N4 R tau; experiment: as above

T5 sequence (P10636 other isoform, or with tags, fused parts or gaps limits assumed): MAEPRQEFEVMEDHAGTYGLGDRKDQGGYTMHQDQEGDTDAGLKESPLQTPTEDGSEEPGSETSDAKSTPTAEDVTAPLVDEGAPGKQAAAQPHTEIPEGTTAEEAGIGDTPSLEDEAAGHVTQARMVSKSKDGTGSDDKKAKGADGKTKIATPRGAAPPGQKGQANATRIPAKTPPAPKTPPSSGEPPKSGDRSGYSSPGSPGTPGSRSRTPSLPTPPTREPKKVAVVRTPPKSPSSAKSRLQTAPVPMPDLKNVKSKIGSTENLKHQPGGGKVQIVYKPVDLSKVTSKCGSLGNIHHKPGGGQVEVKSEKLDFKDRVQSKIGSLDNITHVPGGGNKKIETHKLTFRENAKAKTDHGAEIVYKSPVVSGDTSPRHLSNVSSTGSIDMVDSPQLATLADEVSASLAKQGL
T6 sequence (P10636 other isoform, or with tags, fused parts or gaps limits assumed): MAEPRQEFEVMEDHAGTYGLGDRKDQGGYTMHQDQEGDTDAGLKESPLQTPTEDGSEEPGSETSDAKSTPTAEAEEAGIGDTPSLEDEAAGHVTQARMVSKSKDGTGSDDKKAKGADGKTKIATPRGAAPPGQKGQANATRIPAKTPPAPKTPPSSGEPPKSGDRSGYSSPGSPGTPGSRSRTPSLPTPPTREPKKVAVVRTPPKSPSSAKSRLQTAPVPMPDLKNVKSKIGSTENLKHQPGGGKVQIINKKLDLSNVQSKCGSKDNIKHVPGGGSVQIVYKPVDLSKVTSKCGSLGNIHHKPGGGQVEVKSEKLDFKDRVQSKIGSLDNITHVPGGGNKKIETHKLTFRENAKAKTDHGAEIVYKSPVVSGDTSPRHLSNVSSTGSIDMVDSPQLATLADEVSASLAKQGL
T3 sequence (P10636 other isoform, or with tags, fused parts or gaps limits assumed): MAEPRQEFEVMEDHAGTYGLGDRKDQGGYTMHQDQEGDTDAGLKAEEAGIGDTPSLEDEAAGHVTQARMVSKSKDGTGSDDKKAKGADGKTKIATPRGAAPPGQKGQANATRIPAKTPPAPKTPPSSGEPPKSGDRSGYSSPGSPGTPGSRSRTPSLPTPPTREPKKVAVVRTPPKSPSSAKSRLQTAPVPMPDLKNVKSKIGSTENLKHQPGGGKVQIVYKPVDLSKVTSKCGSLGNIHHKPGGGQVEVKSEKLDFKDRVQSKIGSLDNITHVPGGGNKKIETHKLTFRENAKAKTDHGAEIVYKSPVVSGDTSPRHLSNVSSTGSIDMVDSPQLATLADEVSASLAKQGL
T7 sequence (P10636 other isoform, or with tags, fused parts or gaps limits assumed): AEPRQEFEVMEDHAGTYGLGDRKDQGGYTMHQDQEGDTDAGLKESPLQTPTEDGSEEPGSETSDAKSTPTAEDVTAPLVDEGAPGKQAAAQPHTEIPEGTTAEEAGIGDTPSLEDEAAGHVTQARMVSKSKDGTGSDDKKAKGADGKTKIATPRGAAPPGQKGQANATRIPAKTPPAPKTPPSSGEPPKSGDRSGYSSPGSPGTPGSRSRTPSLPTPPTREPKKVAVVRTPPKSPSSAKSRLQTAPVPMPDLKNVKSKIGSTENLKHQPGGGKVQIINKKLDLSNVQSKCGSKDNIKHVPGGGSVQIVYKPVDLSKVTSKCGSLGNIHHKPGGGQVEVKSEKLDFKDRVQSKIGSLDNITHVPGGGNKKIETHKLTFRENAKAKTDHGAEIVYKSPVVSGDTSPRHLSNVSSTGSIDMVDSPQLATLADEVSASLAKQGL
T4 sequence (P10636 other isoform, or with tags, fused parts or gaps limits assumed): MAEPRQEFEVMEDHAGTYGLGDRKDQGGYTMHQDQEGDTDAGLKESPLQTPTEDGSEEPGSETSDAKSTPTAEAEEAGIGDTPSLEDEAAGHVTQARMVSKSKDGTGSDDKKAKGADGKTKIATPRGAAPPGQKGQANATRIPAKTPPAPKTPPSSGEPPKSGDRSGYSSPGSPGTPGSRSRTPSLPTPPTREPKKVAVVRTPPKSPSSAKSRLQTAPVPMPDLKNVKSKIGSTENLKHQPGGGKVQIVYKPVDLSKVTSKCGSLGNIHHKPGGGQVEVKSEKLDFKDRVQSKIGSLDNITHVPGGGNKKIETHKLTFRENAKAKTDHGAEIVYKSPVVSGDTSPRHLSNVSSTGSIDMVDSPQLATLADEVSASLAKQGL
T8 sequence (P10636 other isoform, or with tags, fused parts or gaps limits assumed, form in doubt): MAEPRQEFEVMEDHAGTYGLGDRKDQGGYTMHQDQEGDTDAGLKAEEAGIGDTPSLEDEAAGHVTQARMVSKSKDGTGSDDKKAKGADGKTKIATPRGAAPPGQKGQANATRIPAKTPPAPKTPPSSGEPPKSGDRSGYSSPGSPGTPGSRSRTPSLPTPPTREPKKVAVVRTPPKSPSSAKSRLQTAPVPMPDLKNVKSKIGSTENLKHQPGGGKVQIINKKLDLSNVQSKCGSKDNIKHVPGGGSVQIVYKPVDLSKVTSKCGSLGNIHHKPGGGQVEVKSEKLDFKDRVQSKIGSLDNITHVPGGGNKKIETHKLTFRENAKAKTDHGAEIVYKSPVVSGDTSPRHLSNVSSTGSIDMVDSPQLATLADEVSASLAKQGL
T1 sequence (P10636 other isoform, or with tags, fused parts or gaps limits assumed, stated change not applied): as the sequence (P10636 other isoform, or with tags, fused parts or gaps limits assumed, form in doubt) above, with P243A counted along it
T2 sequence (P10636 other isoform, or with tags, fused parts or gaps limits assumed, stated change not applied): as the sequence (P10636 other isoform, or with tags, fused parts or gaps limits assumed, form in doubt) above, with G244A counted along it

- binding result [1]: binds
- binding result [2]: binds
- binding result (0N3 R tau [3]): no binding (tested: 10000 ng/ml)
- binding result (1N3 R tau [4]): no binding (tested: 10000 ng/ml)
- binding result (2N3 R tau [5]): no binding (tested: 10000 ng/ml)
- binding result (1N4 R tau [6]): binds
- binding result (2N4 R tau [7]): binds
B1: VR7082 rabbit IgG (antibody, V domains shown)
VH: QSVEESGGRLVTPGTPLTLTCTVSGIDLSNYAMIWVRQAPGEGLEYIGIISSTGNTFYATWAKGRFTISKTSTTVDLKITSPTAEDTATYFCARDTNSDSHYGWEAFNIWGPGTLVTVSS
VL: AVVLTQTPASVEAAVGGTVSINCQASEDIESYLAWYQQKPGQRPKLLIYRASTLASGVSSRFKGSGSGTEYTLTISGVECADAATYYCQEGYSIHVDNVFGGGTEVVVK
notes: Cloned and tested as full-length rabbit IgG (kappa light chain); also called clone 3; VR7082-RbIgG

- binding result (0N3 R tau [8]): no binding
- binding result (1N3 R tau [9]): no binding
- binding result (2N3 R tau [10]): no binding
- binding result (1N4 R tau [11]): binds
- binding result (2N4 R tau [12]): binds
B2: VR7082 formatted as Mouse IgG (antibody, V domains shown)
VH: QSVEESGGRLVTPGTPLTLTCTVSGIDLSNYAMIWVRQAPGEGLEYIGIISSTGNTFYATWAKGRFTISKTSTTVDLKITSPTAEDTATYFCARDTNSDSHYGWEAFNIWGPGTLVTVSS
VL: AVVLTQTPASVEAAVGGTVSINCQASEDIESYLAWYQQKPGQRPKLLIYRASTLASGVSSRFKGSGSGTEYTLTISGVECADAATYYCQEGYSIHVDNVFGGGTEVVVK
notes: also called VR7082 mouse chimeric antibody

- binding result (2N4 R tau [13]): no binding (tested: 10000 ng/ml)
- EC50 (read off the curve) (0N3 R tau [14]): ~0.7 µg/mL
- EC50 (read off the curve) (1N3 R tau [15]): ~1 µg/mL
- EC50 (read off the curve) (2N3 R tau [16]): ~0.9 µg/mL
- binding result (1N4 R tau [17]): no binding (tested: 10000 ng/ml)
B3: VR7081 rabbit IgG (antibody, V domains shown)
VH: QSLEESGGRLVTPGTPLTLTCTVSGFSLSNYAMIWVRQAPGGGLEWIGTMGTNGRTYYASWAKGRFTISKTSTTMDLSMTSLTAEDTATYFCARDAGITYSTYYFNIWGPGTLVTVSS
VL: AQVLTQTPASVSAAVGGTVSISCQSSPSVLNTNDLSWFQQKPGQPPKVLIYGASTLASGVPSRFKGSGSGTQFTLTISDVQCDDAATYYCAGGYDVNIDIYGFGGGTEVVVK
notes: Cloned and tested as full-length rabbit IgG (kappa light chain); also called clone 14; 3 R-specific antibody

- binding result (1N4 R tau [18]): no binding
- binding result (2N4 R tau [19]): no binding
B4: VR7081 formatted as Mouse IgG (antibody, V domains shown)
VH: QSLEESGGRLVTPGTPLTLTCTVSGFSLSNYAMIWVRQAPGGGLEWIGTMGTNGRTYYASWAKGRFTISKTSTTMDLSMTSLTAEDTATYFCARDAGITYSTYYFNIWGPGTLVTVSS
VL: AQVLTQTPASVSAAVGGTVSISCQSSPSVLNTNDLSWFQQKPGQPPKVLIYGASTLASGVPSRFKGSGSGTQFTLTISDVQCDDAATYYCAGGYDVNIDIYGFGGGTEVVVK
notes: also called VR7081 mouse chimeric antibody

- binding result (0N3 R tau [20]): no binding (tested: 10000 ng/ml)
- binding result (1N3 R tau [21]): no binding (tested: 10000 ng/ml)
- binding result (2N3 R tau [22]): no binding (tested: 10000 ng/ml)
- EC50 (read off the curve) (0N4 R tau): ~0.6 µg/mL
- EC50 (read off the curve) (1N4 R tau [23]): ~0.8 µg/mL
- EC50 (read off the curve) (2N4 R tau [24]): ~0.9 µg/mL
B5: VR7082 scFv-Ms-Fc (Fc fusion)
scFv: MAQSVEESGGRLVTPGTPLTLTCTVSGIDLSNYAMIWVRQAPGEGLEYIGIISSTGNTFYATWAKGRFTISKTSTTVDLKITSPTAEDTATYFCARDTNSDSHYGWEAFNIWGPGTLVTVSSGGGGSGGGGSGGGGSGGGGSAVVLTQTPASVEAAVGGTVSINCQASEDIESYLAWYQQKPGQRPKLLIYRASTLASGVSSRFKGSGSGTEYTLTISGVECADAATYYCQEGYSIHVDNVFGGGTEVVVK
notes: also called scFv mouse Fc conversion of VR7082; not shown: mouse Fc
